Measured values taken from PMC4574524.

Biological target: PFD1235w DBLβ3_D4, wild type (P. falciparum 3D7)
Test: SPR

Substance ICAM-1_D1-D2 (domain or fragment) has a Kd of 7.9 nM and a koff of 0.00167 s⁻¹.
